Test results: patent US20230272086A1 (CHIA TAI TIANQING PHARMACEUTICAL GROUP, published 2023)
Positions count from the first letter of the chain named.

B1: GSK3772847 (antibody STLM208 in CN104411333, prepared in-house) (antibody, human IgG2, kappa, V domains shown)
VH: EVQLLESGGGLVQPGGSLRLSCAASGFTFSIYDMIWVRQAPGKGLEWVSSIRGEGGGTYYADSVKGRFTISRDNSKNTLYLQMNSLRAEDTAVYYCARDPWSTEGSFFVLDYWGQGTLVTVSS
VL: EIVLTQSPATLSLSPGERATLSCRASQSVDDDLAWYQQKPGQAPRLLIYDASNRATGIPARFSGSGSGTDFTLTISSLEPEDFAVYYCQQYITAPLTFGQGTKVEIKR
notes: Control anti-ST2 antibody
B2: RG6149 (antibody Ab2 in CN104334582, prepared in-house) (antibody, human IgG2, kappa, V domains shown)
VH: EVQLVQSGAEVKKPGESLKISCKGSGYSFTNYWIGWVRQMPGKGLEWMGIIYPGNSDTRFSPSFQGQVTISADKSITTAYLQWSSLKASDTAMYYCARHGTSSDYYGLDVWGQGTTVTVSS
VL: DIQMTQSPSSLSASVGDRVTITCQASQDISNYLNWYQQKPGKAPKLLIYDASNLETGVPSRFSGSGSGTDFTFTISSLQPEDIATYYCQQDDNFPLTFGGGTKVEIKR
notes: Control anti-ST2 antibody
B3: Humanized 31C8-1.1 (antibody, human IgG2, kappa, V domains shown)
VH: EVQLVQSGAEVKKPGATVKISCKASGYIFIDSEMHWVQQAPGKGLEWMGAIDPETGDTVYAEKFQGRVTITADKSSSTAYMELSSLRSEDTAVYYCTGSTTDYYFAYWGQGTLVTVSS
VL: DIQMTQSPSSLSASVGDRVTITCRSSKSLLHSNGIIYLYWYQQKPGKAPKLLIYQLSNLASGVPSRFSSSGSGTDFTLTISSLQPEDFATYYCAQNLELPFTFGQGTKVEIKR
notes: also called hz31C8-1.1; hz31C81-1.1
B4: Humanized 31C8-1.2 (antibody, human IgG2, kappa, V domains shown)
VH: B3 VH with E1Q, E10K, E62K, Q65K
VL: B3 VL
notes: also called hz31C8-1.2; hz31C81-1.2
B5: Chimeric 31C8 (antibody, human IgG2, kappa, V domains shown)
VH: QVQLQQSGPELVRPGASVTLSCKASGYIFIDSEMHWVKQTPVHGLEWIGAIDPETGDTVYNQKFKGKATLTADKSSSTASMELSSLTSEDSAVYYCTGSTTDYYFAYWGQGTTLTVSS
VL: DIVMTQAAFSNPVTLGTSASISCRSSKSLLHSNGIIYLYWYLQKPGQSPQLLIYQMSNLASGVPDRFSSSGSGTDFTLRISRVEAEDVGVYYCAQNLELPFTFGSGTKLEIKR
notes: also called xi31C8

What follows are binders tested against T1, human ST2 (hST2, Interleukin-1 receptor-like 1 isoform A) on cells (human, UniProt Q01638 19-556) (assay: cell-based or functional assay).
T1 sequence: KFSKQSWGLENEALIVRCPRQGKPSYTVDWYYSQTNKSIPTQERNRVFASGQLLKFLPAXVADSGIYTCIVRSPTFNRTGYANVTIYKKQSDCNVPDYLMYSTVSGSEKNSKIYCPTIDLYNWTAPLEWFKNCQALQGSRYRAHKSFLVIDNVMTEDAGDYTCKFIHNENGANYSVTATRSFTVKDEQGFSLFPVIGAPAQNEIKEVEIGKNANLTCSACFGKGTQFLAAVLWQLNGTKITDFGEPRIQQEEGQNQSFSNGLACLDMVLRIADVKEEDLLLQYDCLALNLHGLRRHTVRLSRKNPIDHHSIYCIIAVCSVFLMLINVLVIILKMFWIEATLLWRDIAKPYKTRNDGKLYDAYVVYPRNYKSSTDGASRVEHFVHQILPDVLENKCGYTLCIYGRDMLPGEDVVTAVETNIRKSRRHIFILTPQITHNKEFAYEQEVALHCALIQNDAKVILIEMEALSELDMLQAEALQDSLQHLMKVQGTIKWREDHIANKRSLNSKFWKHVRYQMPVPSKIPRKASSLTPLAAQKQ

Binder | IC50, blocking of the IL33/ST2 signaling (NFκB luciferase reporter, HEK293T-hST2-NFκB-Luciferase cells) | IC50, blocking of the IL33/ST2 signaling (NFκB luciferase reporter, KU812-NFκB-Luciferase cells naturally expressing hST2, 200 pM hIL33)
B1 | 29.2 nM | 0.111 nM
B2 | 84.3 nM | 47 pM
B3 | 15.9 nM | 8 pM
B4 | 20.4 nM | 6 pM
B5 | 15.6 nM | 16 pM

Molecular target: T2, recombinant protein containing hST2 extracellular domain with mouse antibody heavy chain Fc tag (hST2-ECD-mFc) (human)
T2 construct: Used for SPR and for ELISA of chimeric and humanized antibodies; also called human ST2 antigen
T2 chain: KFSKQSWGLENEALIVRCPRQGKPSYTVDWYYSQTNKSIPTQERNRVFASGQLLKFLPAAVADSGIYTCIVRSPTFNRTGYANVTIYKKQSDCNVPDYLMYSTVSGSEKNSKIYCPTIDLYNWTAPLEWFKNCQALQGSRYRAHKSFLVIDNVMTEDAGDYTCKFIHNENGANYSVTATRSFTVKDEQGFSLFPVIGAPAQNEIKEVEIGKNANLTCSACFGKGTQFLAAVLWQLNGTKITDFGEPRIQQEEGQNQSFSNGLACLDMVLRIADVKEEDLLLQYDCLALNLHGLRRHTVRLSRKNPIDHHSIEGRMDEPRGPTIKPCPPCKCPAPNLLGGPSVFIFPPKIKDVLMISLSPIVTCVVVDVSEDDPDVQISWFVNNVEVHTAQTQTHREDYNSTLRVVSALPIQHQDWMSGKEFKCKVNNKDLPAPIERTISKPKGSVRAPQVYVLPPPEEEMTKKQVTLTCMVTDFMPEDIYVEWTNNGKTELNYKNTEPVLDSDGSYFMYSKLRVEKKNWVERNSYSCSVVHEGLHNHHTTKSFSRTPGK
Assay: ELISA, plate coated with hST2-ECD-mFc, antibody heated at 72 °C for 5 min
Method: The anti-ST2 antibodies were diluted with PBS buffer to a concentration of 1.5 mg/mL. After being treated at 72° C. for 5 min, the samples were assayed by ELISA for their binding activity for an antigen The ELISA procedure is as follows: A 96-well plate was coated with 2 µg/mL hST2-ECD-mFc as the antigen at 100 µL/well and incubated at 4° C. overnight. After the antigen not adsorbed was well washed off, the non-specific binding sites were blocked with a blocking buffer (PBST containing 1% bovine serum albumin). After the plate was washed three times with a washing buffer (PBST, PBS containing 0.05% (v/v) Tween 20), the anti-ST2 antibodies (serially diluted 3-fold from an initial concentration of 1.5 µg/mL to 8 concentrations) were added at 100 µL/well, and the plate was incubated at 37° C. for 1 h. […] After the plate was incubated at room temperature for 5 min, a stop solution (2 N H₂SO₄) was added to stop the reactions. The signals were read at 450 nm using a plate reader (PE, Envision). The data were analyzed using GraphPad Prism5, and the EC₅₀ values were calculated.

Binder | EC50
B1 | 0.188 nM
B3 | 0.0968 nM
B4 | 0.11 nM
B5 | 0.0863 nM

Molecular target: T2, recombinant protein containing hST2 …
Assay: SPR (Biacore T200), hST2-ECD-mFc captured by anti-mouse IgG on CM5, antibody as analyte, 1:1 model
Method: The reaction signals were detected in real time using a Biacore instrument (Cytiva, BiacoreT200), and then an association-dissociation curve was obtained. After the completion of dissociation in each cycle, the biochip was regenerated with a regeneration solution for the next capture; the procedure was repeated until the affinity of the different antibodies for ST2 was determined. The acquired data were finally analyzed using the GE BIAevaluation software with a 1:1 (Langmuir) binding model to determine the association rate constants ka (kon) and the dissociation rate constants kd (koff), and the dissociation constants KD were given by KD = kd/ka. The determined affinity of the anti-ST2 antibody for human ST2 antigen (hST2-ECD-mFc), cynomolgus monkey ST2 antigen (Cyno-ST2-his, Sino biological, 90915-C08H) and the determined affinity of the anti-ST2 chimeric antibodies for ST2 were shown in Table 5.
The humanized antibodies hz31C81-1.1 (the amino acid sequence of the heavy chain set forth in SEQ ID NO: 75 and the amino acid sequence of the light chain set forth in SEQ ID NO: 81) and hz31C8-1.2 (the amino acid sequence of the heavy chain set forth in SEQ ID NO: 77 and the amino acid sequence of the light chain set forth in SEQ ID NO: 81) were subjected to affinity, binding, blocking and cell function analyses using the methods described in Example 4, Example 5, Example 6, Example 7, Example 8, Example 9 and Example 10. In the present disclosure, “hz” and “xi” denote humanized antibodies and chimeric antibodies, respectively; for example, “hz31C81-1.1” and “hz31C81-1.2” represent humanized 31C81-1.1 and 31C81-1.2 antibodies, and “xi31C8” represents a chimeric 31C8 antibody.

Binder | Kd
B1 | 0.0958 nM
B2 | 0.128 nM
B3 | 0.0836 nM
B4 | 0.145 nM
B5 | 0.129 nM
